Results as given in paper PMC9253567, “The Role of ZAP and TRIM25 RNA Binding in Restricting Viral Translation” (Frontiers in Cellular and Infection Microbiology, 2022).

B1: FLAG-tagged ZAPL C96A/Y98A (natural protein, human, UniProt Q7Z2W4-1 1-902, looked up)
chain: MADPEVCCFITKILCAHGGRMALDALLQEIALSEPQLCEVLQVAGPDRFVVLETGGEAGITRSVVATTRARVCRRKYCQRPCDNLHLCKLNLLGRANASQSERNLCKYSHEVLSEENFKVLKNHELSGLNKEELAVLLLQSDPFFMPEICKSYKGEGRQQICNQQPPCSRLHICDHFTRGNCRFPNCLRSHNLMDRKVLAIMREHGLNPDVVQNIQDICNSKHMQKNPPGPRAPSSHRRNMAYRARSKSRDRFFQGSQEFLASASASAERSCTPSPDQISHRASLEDAPVDDLTRKFTYLGSQDRARPPSGSSKATDLGGTSQAGTSQRFLENGSQEDLLHGNPGSTYLASNSTSAPNWKSLTSWTNDQGARRKTVFSPTLPAARSSLGSLQTPEAVTTRKGTGLLSSDYRIINGKSGTQDIQPGPLFNNNADGVATDITSTRSLNYKSTSSGHREISSPRIQDAGPASRDVQATGRIADDADPRVALVNDSLSDVTSTTSSRVDDHDSEEICLDHLCKGCPLNGSCSKVHFHLPYRWQMLIGKTWTDFEHMETIEKGYCNPGIHLCSVGSYTINFRVMSCDSFPIRRLSTPSSVTKPANSVFTTKWIWYWKNESGTWIQYGEEKDKRKNSNVDSSYLESLYQSCPRGVVPFQAGSRNYELSFQGMIQTNIASKTQKDVIRRPTFVPQWYVQQMKRGPDHQPAKTSSVSLTATFRPQEDFCFLSSKKYKLSEIHHLHPEYVRVSEHFKASMKNFKIEKIKKIENSELLDKFTWKKSQMKEEGKLLFYATSRAYVESICSNNFDSFLHETHENKYGKGIYFAKDAIYSHKNCPYDAKNVVMFVAQVLVGKFTEGNITYTSPPPQFDSCVDTRSNPSVFVIFQKDQVYPQYVIEYTEDKACVIS
notes: zinc finger antiviral protein (ZAP), long isoform ZAPL, cloned from pTRIP-TagRFP-hZAPL; also called ZAPL CY; CY; source: ZAP KO 293T cells, transfected (pcDNA3.1-3XFLAG), in lysate; not shown: 3XFLAG, N-terminal, kept
B2: FLAG-tagged ZAPS C88R (ZnF 2 mutant) (natural protein, human, UniProt Q7Z2W4-2 1-699, looked up)
chain: MADPEVCCFITKILCAHGGRMALDALLQEIALSEPQLCEVLQVAGPDRFVVLETGGEAGITRSVVATTRARVCRRKYCQRPCDNLHLRKLNLLGRCNYSQSERNLCKYSHEVLSEENFKVLKNHELSGLNKEELAVLLLQSDPFFMPEICKSYKGEGRQQICNQQPPCSRLHICDHFTRGNCRFPNCLRSHNLMDRKVLAIMREHGLNPDVVQNIQDICNSKHMQKNPPGPRAPSSHRRNMAYRARSKSRDRFFQGSQEFLASASASAERSCTPSPDQISHRASLEDAPVDDLTRKFTYLGSQDRARPPSGSSKATDLGGTSQAGTSQRFLENGSQEDLLHGNPGSTYLASNSTSAPNWKSLTSWTNDQGARRKTVFSPTLPAARSSLGSLQTPEAVTTRKGTGLLSSDYRIINGKSGTQDIQPGPLFNNNADGVATDITSTRSLNYKSTSSGHREISSPRIQDAGPASRDVQATGRIADDADPRVALVNDSLSDVTSTTSSRVDDHDSEEICLDHLCKGCPLNGSCSKVHFHLPYRWQMLIGKTWTDFEHMETIEKGYCNPGIHLCSVGSYTINFRVMSCDSFPIRRLSTPSSVTKPANSVFTTKWIWYWKNESGTWIQYGEEKDKRKNSNVDSSYLESLYQSCPRGVVPFQAGSRNYELSFQGMIQTNIASKTQKDVIRRPTFVPQWYVQQMKRGPE
notes: zinc finger antiviral protein (ZAP), short isoform ZAPS, cloned from pTRIP-TagRFP-hZAPS; source: ZAP KO 293T cells, transfected (pcDNA3.1-3XFLAG), in lysate; not shown: 3XFLAG, N-terminal, kept
B3: FLAG-tagged ZAPS V72A/Y108A/F144A (natural protein, human, UniProt Q7Z2W4-2 1-699, looked up)
chain: MADPEVCCFITKILCAHGGRMALDALLQEIALSEPQLCEVLQVAGPDRFVVLETGGEAGITRSVVATTRARACRRKYCQRPCDNLHLCKLNLLGRCNYSQSERNLCKASHEVLSEENFKVLKNHELSGLNKEELAVLLLQSDPAFMPEICKSYKGEGRQQICNQQPPCSRLHICDHFTRGNCRFPNCLRSHNLMDRKVLAIMREHGLNPDVVQNIQDICNSKHMQKNPPGPRAPSSHRRNMAYRARSKSRDRFFQGSQEFLASASASAERSCTPSPDQISHRASLEDAPVDDLTRKFTYLGSQDRARPPSGSSKATDLGGTSQAGTSQRFLENGSQEDLLHGNPGSTYLASNSTSAPNWKSLTSWTNDQGARRKTVFSPTLPAARSSLGSLQTPEAVTTRKGTGLLSSDYRIINGKSGTQDIQPGPLFNNNADGVATDITSTRSLNYKSTSSGHREISSPRIQDAGPASRDVQATGRIADDADPRVALVNDSLSDVTSTTSSRVDDHDSEEICLDHLCKGCPLNGSCSKVHFHLPYRWQMLIGKTWTDFEHMETIEKGYCNPGIHLCSVGSYTINFRVMSCDSFPIRRLSTPSSVTKPANSVFTTKWIWYWKNESGTWIQYGEEKDKRKNSNVDSSYLESLYQSCPRGVVPFQAGSRNYELSFQGMIQTNIASKTQKDVIRRPTFVPQWYVQQMKRGPE
notes: zinc finger antiviral protein (ZAP), short isoform ZAPS, cloned from pTRIP-TagRFP-hZAPS; also called ZAPS VYF; VYF; source: ZAP KO 293T cells, transfected (pcDNA3.1-3XFLAG), in lysate; not shown: 3XFLAG, N-terminal, kept
B4: FLAG-tagged ZAPS C96A/Y98A (natural protein, human, UniProt Q7Z2W4-2 1-699, looked up)
chain: MADPEVCCFITKILCAHGGRMALDALLQEIALSEPQLCEVLQVAGPDRFVVLETGGEAGITRSVVATTRARVCRRKYCQRPCDNLHLCKLNLLGRANASQSERNLCKYSHEVLSEENFKVLKNHELSGLNKEELAVLLLQSDPFFMPEICKSYKGEGRQQICNQQPPCSRLHICDHFTRGNCRFPNCLRSHNLMDRKVLAIMREHGLNPDVVQNIQDICNSKHMQKNPPGPRAPSSHRRNMAYRARSKSRDRFFQGSQEFLASASASAERSCTPSPDQISHRASLEDAPVDDLTRKFTYLGSQDRARPPSGSSKATDLGGTSQAGTSQRFLENGSQEDLLHGNPGSTYLASNSTSAPNWKSLTSWTNDQGARRKTVFSPTLPAARSSLGSLQTPEAVTTRKGTGLLSSDYRIINGKSGTQDIQPGPLFNNNADGVATDITSTRSLNYKSTSSGHREISSPRIQDAGPASRDVQATGRIADDADPRVALVNDSLSDVTSTTSSRVDDHDSEEICLDHLCKGCPLNGSCSKVHFHLPYRWQMLIGKTWTDFEHMETIEKGYCNPGIHLCSVGSYTINFRVMSCDSFPIRRLSTPSSVTKPANSVFTTKWIWYWKNESGTWIQYGEEKDKRKNSNVDSSYLESLYQSCPRGVVPFQAGSRNYELSFQGMIQTNIASKTQKDVIRRPTFVPQWYVQQMKRGPE
notes: zinc finger antiviral protein (ZAP), short isoform ZAPS, cloned from pTRIP-TagRFP-hZAPS; also called ZAPS CY; CY; source: ZAP KO 293T cells, transfected (pcDNA3.1-3XFLAG), in lysate; not shown: 3XFLAG, N-terminal, kept
B5: FLAG-tagged ZAPS H176A/F184A/R189A (natural protein, human, UniProt Q7Z2W4-2 1-699, looked up)
chain: MADPEVCCFITKILCAHGGRMALDALLQEIALSEPQLCEVLQVAGPDRFVVLETGGEAGITRSVVATTRARVCRRKYCQRPCDNLHLCKLNLLGRCNYSQSERNLCKYSHEVLSEENFKVLKNHELSGLNKEELAVLLLQSDPFFMPEICKSYKGEGRQQICNQQPPCSRLHICDAFTRGNCRAPNCLASHNLMDRKVLAIMREHGLNPDVVQNIQDICNSKHMQKNPPGPRAPSSHRRNMAYRARSKSRDRFFQGSQEFLASASASAERSCTPSPDQISHRASLEDAPVDDLTRKFTYLGSQDRARPPSGSSKATDLGGTSQAGTSQRFLENGSQEDLLHGNPGSTYLASNSTSAPNWKSLTSWTNDQGARRKTVFSPTLPAARSSLGSLQTPEAVTTRKGTGLLSSDYRIINGKSGTQDIQPGPLFNNNADGVATDITSTRSLNYKSTSSGHREISSPRIQDAGPASRDVQATGRIADDADPRVALVNDSLSDVTSTTSSRVDDHDSEEICLDHLCKGCPLNGSCSKVHFHLPYRWQMLIGKTWTDFEHMETIEKGYCNPGIHLCSVGSYTINFRVMSCDSFPIRRLSTPSSVTKPANSVFTTKWIWYWKNESGTWIQYGEEKDKRKNSNVDSSYLESLYQSCPRGVVPFQAGSRNYELSFQGMIQTNIASKTQKDVIRRPTFVPQWYVQQMKRGPE
notes: zinc finger antiviral protein (ZAP), short isoform ZAPS, cloned from pTRIP-TagRFP-hZAPS; also called ZAPS HFR; HFR; source: ZAP KO 293T cells, transfected (pcDNA3.1-3XFLAG), in lysate; not shown: 3XFLAG, N-terminal, kept
B6: FLAG-tagged ZAPS K107A/Y108A (natural protein, human, UniProt Q7Z2W4-2 1-699, looked up)
chain: MADPEVCCFITKILCAHGGRMALDALLQEIALSEPQLCEVLQVAGPDRFVVLETGGEAGITRSVVATTRARVCRRKYCQRPCDNLHLCKLNLLGRCNYSQSERNLCAASHEVLSEENFKVLKNHELSGLNKEELAVLLLQSDPFFMPEICKSYKGEGRQQICNQQPPCSRLHICDHFTRGNCRFPNCLRSHNLMDRKVLAIMREHGLNPDVVQNIQDICNSKHMQKNPPGPRAPSSHRRNMAYRARSKSRDRFFQGSQEFLASASASAERSCTPSPDQISHRASLEDAPVDDLTRKFTYLGSQDRARPPSGSSKATDLGGTSQAGTSQRFLENGSQEDLLHGNPGSTYLASNSTSAPNWKSLTSWTNDQGARRKTVFSPTLPAARSSLGSLQTPEAVTTRKGTGLLSSDYRIINGKSGTQDIQPGPLFNNNADGVATDITSTRSLNYKSTSSGHREISSPRIQDAGPASRDVQATGRIADDADPRVALVNDSLSDVTSTTSSRVDDHDSEEICLDHLCKGCPLNGSCSKVHFHLPYRWQMLIGKTWTDFEHMETIEKGYCNPGIHLCSVGSYTINFRVMSCDSFPIRRLSTPSSVTKPANSVFTTKWIWYWKNESGTWIQYGEEKDKRKNSNVDSSYLESLYQSCPRGVVPFQAGSRNYELSFQGMIQTNIASKTQKDVIRRPTFVPQWYVQQMKRGPE
notes: zinc finger antiviral protein (ZAP), short isoform ZAPS, cloned from pTRIP-TagRFP-hZAPS; also called ZAPS KY; KY; source: ZAP KO 293T cells, transfected (pcDNA3.1-3XFLAG), in lysate; not shown: 3XFLAG, N-terminal, kept
B7: FLAG-tagged ZAPS E148A/K151A/R170A (natural protein, human, UniProt Q7Z2W4-2 1-699, looked up)
chain: MADPEVCCFITKILCAHGGRMALDALLQEIALSEPQLCEVLQVAGPDRFVVLETGGEAGITRSVVATTRARVCRRKYCQRPCDNLHLCKLNLLGRCNYSQSERNLCKYSHEVLSEENFKVLKNHELSGLNKEELAVLLLQSDPFFMPAICASYKGEGRQQICNQQPPCSALHICDHFTRGNCRFPNCLRSHNLMDRKVLAIMREHGLNPDVVQNIQDICNSKHMQKNPPGPRAPSSHRRNMAYRARSKSRDRFFQGSQEFLASASASAERSCTPSPDQISHRASLEDAPVDDLTRKFTYLGSQDRARPPSGSSKATDLGGTSQAGTSQRFLENGSQEDLLHGNPGSTYLASNSTSAPNWKSLTSWTNDQGARRKTVFSPTLPAARSSLGSLQTPEAVTTRKGTGLLSSDYRIINGKSGTQDIQPGPLFNNNADGVATDITSTRSLNYKSTSSGHREISSPRIQDAGPASRDVQATGRIADDADPRVALVNDSLSDVTSTTSSRVDDHDSEEICLDHLCKGCPLNGSCSKVHFHLPYRWQMLIGKTWTDFEHMETIEKGYCNPGIHLCSVGSYTINFRVMSCDSFPIRRLSTPSSVTKPANSVFTTKWIWYWKNESGTWIQYGEEKDKRKNSNVDSSYLESLYQSCPRGVVPFQAGSRNYELSFQGMIQTNIASKTQKDVIRRPTFVPQWYVQQMKRGPE
notes: zinc finger antiviral protein (ZAP), short isoform ZAPS, cloned from pTRIP-TagRFP-hZAPS; also called ZAPS EKR; EKR; source: ZAP KO 293T cells, transfected (pcDNA3.1-3XFLAG), in lysate; not shown: 3XFLAG, N-terminal, kept

Target: T1, myc-tagged TRIM25 WT (tripartite motif-containing protein 25) (UniProt Q14258 1-630)
T1 construct: tripartite motif-containing protein 25 (TRIM25), ubiquitin E3 ligase; full-length TRIM25 provided by J. U. Jung (Gack et al., 2007); source: ZAP KO 293T or TRIM25 KO 293T cells, transfected (pcDNA3.1-myc), in lysate; not shown: myc, N-terminal, kept
T1 sequence (Q14258 whole entry): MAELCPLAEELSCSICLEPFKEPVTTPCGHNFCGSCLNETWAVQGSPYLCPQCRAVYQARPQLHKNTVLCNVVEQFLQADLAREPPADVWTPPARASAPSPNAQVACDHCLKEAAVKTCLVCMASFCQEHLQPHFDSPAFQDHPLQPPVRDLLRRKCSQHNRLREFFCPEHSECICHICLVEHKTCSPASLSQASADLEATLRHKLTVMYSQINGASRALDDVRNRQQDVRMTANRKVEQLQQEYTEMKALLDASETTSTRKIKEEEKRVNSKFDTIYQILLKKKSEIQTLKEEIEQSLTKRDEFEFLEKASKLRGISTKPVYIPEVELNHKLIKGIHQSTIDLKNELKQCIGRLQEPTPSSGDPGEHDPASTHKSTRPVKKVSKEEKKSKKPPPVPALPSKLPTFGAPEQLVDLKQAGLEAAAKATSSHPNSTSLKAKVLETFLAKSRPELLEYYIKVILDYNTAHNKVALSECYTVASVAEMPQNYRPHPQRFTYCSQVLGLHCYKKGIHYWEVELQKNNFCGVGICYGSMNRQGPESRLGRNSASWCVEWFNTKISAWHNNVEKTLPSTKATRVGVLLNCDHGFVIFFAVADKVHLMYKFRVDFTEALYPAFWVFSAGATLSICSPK
Test: co-IP; myc IP (anti-myc beads) of myc-TRIM25 WT from lysates of ZAP KO 293T cells co-transfected with FLAG-ZAPS or FLAG-ZAPL WT or mutants; FLAG-ZAP detected by immunoblot; FLAG IP buffer (100 mM Tris-HCl 8.0, 150 mM NaCl, 5 mM EDTA, 1 mM DTT, 5% glycerol, 0.1% NP-40), 4°C, 45 min; FLAG IP band divided by myc IP band (ImageJ)
Conditions: partners not purified

Binder | ZAP-TRIM25 interaction (co-IP, FLAG-ZAP band over myc-TRIM25 band, ImageJ)
B1 | 0.329
B2 | 0.45
B3 | 0.792
B4 | 0.55
B5 | 0.205
B6 | 0.33
B7 | 0.189
